Test results taken from article PMC10201424, “Biochemical characterisation of Mer3 helicase interactions and the protection of meiotic recombination intermediates” (Nucleic Acids Research, 2022).
Where “and” joins values, the source holds several entries; their conditions need not be identical. Equal values may be shown once.

T1: Mer3-Strep (full-length S. cerevisiae Mer3 with C-terminal 2xStrep-II tag) (S. cerevisiae, UniProt P51979 1-1187, phosphorylated in insect cells; high-confidence sites S17, S80, T100, S398, S958, T1092)
T1 sequence (looked up): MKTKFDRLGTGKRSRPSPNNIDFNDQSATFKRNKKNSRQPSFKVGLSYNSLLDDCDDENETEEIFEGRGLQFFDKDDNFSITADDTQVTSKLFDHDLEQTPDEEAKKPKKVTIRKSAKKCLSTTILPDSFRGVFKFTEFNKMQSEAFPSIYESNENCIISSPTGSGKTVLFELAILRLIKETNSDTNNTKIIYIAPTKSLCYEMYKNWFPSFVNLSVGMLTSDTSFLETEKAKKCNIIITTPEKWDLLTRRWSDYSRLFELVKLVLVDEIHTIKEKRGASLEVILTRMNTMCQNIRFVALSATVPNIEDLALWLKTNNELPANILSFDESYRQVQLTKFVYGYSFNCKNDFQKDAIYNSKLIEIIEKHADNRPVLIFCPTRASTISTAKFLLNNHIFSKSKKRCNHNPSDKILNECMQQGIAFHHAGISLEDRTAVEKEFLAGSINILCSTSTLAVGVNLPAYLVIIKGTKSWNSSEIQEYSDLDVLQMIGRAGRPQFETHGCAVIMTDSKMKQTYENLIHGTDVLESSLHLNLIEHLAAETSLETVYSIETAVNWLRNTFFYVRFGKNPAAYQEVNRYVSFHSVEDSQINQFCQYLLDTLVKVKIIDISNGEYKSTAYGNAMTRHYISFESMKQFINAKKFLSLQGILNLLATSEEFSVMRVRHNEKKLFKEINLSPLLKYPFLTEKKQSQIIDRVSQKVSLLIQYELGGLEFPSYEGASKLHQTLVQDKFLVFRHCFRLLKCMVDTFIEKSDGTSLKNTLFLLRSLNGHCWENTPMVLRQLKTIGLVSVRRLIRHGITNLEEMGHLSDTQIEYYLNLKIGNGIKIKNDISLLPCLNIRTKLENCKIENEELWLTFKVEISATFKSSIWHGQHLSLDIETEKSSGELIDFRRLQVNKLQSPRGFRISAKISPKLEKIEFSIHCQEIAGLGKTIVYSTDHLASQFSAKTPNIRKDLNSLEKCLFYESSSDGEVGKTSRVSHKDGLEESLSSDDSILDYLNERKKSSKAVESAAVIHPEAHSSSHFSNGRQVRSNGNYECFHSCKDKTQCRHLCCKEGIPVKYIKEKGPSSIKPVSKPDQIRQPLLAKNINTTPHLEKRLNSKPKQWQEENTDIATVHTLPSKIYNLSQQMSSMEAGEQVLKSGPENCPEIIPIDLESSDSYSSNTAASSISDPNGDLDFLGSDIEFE

B1: Top3, untagged (chain of the Top3/Rmi1 complex) (enzyme, S. cerevisiae, UniProt P13099 1-656, looked up)
chain: MKVLCVAEKNSIAKAVSQILGGGRSTSRDSGYMYVKNYDFMFSGFPFARNGANCEVTMTSVAGHLTGIDFSHDSHGWGKCAIQELFDAPLNEIMNNNQKKIASNIKREARNADYLMIWTDCDREGEYIGWEIWQEAKRGNRLIQNDQVYRAVFSHLERQHILNAARNPSRLDMKSVHAVGTRIEIDLRAGVTFTRLLTETLRNKLRNQATMTKDGAKHRGGNKNDSQVVSYGTCQFPTLGFVVDRFERIRNFVPEEFWYIQLVVENKDNGGTTTFQWDRGHLFDRLSVLTFYETCIETAGNVAQVVDLKSKPTTKYRPLPLTTVELQKNCARYLRLNAKQSLDAAEKLYQKGFISYPRTETDTFPHAMDLKSLVEKQAQLDQLAAGGRTAWASYAASLLQPENTSNNNKFKFPRSGSHDDKAHPPIHPIVSLGPEANVSPVERRVYEYVARHFLACCSEDAKGQSMTLVLDWAVERFSASGLVVLERNFLDVYPWARWETTKQLPRLEMNALVDIAKAEMKAGTTAPPKPMTESELILLMDTNGIGTDATIAEHIDKIQVRNYVRSEKVGKETYLQPTTLGVSLVHGFEAIGLEDSFAKPFQRREMEQDLKKICEGHASKTDVVKDIVEKYRKYWHKTNACKNTLLQVYDRVKASM
notes: Top3 (type IA topoisomerase), S. cerevisiae, from SK1 strain genomic DNA; untagged; Same chain as in m10 and m11; source: Hi5 insect cells (co-expressed with GST-Rmi1), purified with Rmi1

How the values were obtained:
[1] = molecular target: Mer3-Strep (full-length S. cerevisiae Mer3 with C-terminal 2xStrep-II tag) (S. cerevisiae) (UniProt P51979); assay: SEC-MALS; full-length Mer3, 10 μM at injection, Superose 6 5/150; 30 mM HEPES pH 6.8, 300 mM NaCl, 1 mM MgCl2, 5 μM ZnCl2, 1 mM TCEP
[2] = molecular target: T1, Mer3-Strep (full-length S. cerevisiae …); assay: pull-down; Mer3-Strep (0.7 μM) held by anti-Strep antibody and protein G beads (the legend says StrepTactin pulldown), His-Top3 1.3 μM; 25 mM HEPES pH 7.5, 5% glycerol, 50 mM NaCl, 1 mM TCEP, 0.1% Tween-20; western blot; settings: both partners purified
[3] = molecular target: T1, Mer3-Strep (full-length S. cerevisiae …); assay: cross-linking; XL-MS with DSBU, proteins 3 μM, 1 h at 25°C; 30 mM HEPES 6.8, 150 mM NaCl, 5% glycerol, 1 mM MgCl2, 1 mM TCEP; samples: Mer3, Mlh1/Mlh2, Mer3/Mlh1/Mlh2, Top3/Rmi1, Mer3/Top3/Rmi1; settings: both partners purified
[4] = molecular target: T1, Mer3-Strep (full-length S. cerevisiae …); assay: MST; 45 nM RED-NHS labelled Mer3, partner titrated; 50 mM Tris–HCl pH 7.4, 150 mM NaCl, 10 mM MgCl2, 0.05% Tween-20; 25°C; triplicates; settings: both partners purified
[5] = molecular target: B1; assay: cross-linking; XL-MS with DSBU, proteins 3 μM, 1 h at 25°C; 30 mM HEPES 6.8, 150 mM NaCl, 5% glycerol, 1 mM MgCl2, 1 mM TCEP; samples: Mer3, Mlh1/Mlh2, Mer3/Mlh1/Mlh2, Top3/Rmi1, Mer3/Top3/Rmi1; settings: both partners purified

binding result [3]	Kd [4]	Molecule	further results
		Mer3-Strep (full-length S. cerevisiae Mer3 with C-terminal 2xStrep-II tag) (from UniProt P51979 1-1187) (enzyme)	stoichiometry N [1]: 2
		His-Top3 (enzyme, S. cerevisiae, UniProt P13099 1-656, looked up, Top3 (type IA topoisomerase), S. cerevisiae, from SK1 strain genomic DNA; also called His-tagged Top3; source: Hi5 insect cells, purified (TALON, heparin, ResourceS, SEC); not shown: His6, N-terminal, kept) MKVLCVAEKNSIAKAVSQILGGGRSTSRDSGYMYVKNYDFMFSGFPFARNGANCEVTMTSVAGHLTGIDFSHDSHGWGKCAIQELFDAPLNEIMNNNQKKIASNIKREARNADYLMIWTDCDREGEYIGWEIWQEAKRGNRLIQNDQVYRAVFSHLERQHILNAARNPSRLDMKSVHAVGTRIEIDLRAGVTFTRLLTETLRNKLRNQATMTKDGAKHRGGNKNDSQVVSYGTCQFPTLGFVVDRFERIRNFVPEEFWYIQLVVENKDNGGTTTFQWDRGHLFDRLSVLTFYETCIETAGNVAQVVDLKSKPTTKYRPLPLTTVELQKNCARYLRLNAKQSLDAAEKLYQKGFISYPRTETDTFPHAMDLKSLVEKQAQLDQLAAGGRTAWASYAASLLQPENTSNNNKFKFPRSGSHDDKAHPPIHPIVSLGPEANVSPVERRVYEYVARHFLACCSEDAKGQSMTLVLDWAVERFSASGLVVLERNFLDVYPWARWETTKQLPRLEMNALVDIAKAEMKAGTTAPPKPMTESELILLMDTNGIGTDATIAEHIDKIQVRNYVRSEKVGKETYLQPTTLGVSLVHGFEAIGLEDSFAKPFQRREMEQDLKKICEGHASKTDVVKDIVEKYRKYWHKTNACKNTLLQVYDRVKASM	binding result [2]: binds
binds		B1	
	844 ± 148 nM	Top3/Rmi1 complex (as used in MST and XL-MS) (complex, S. cerevisiae, Top3 (type IA topoisomerase), S. cerevisiae, from SK1 strain genomic DNA; untagged; Rmi1, S. cerevisiae, from SK1 strain genomic DNA; The methods describe a GST-tagged and an untagged (3C protease cleaved) preparation; source: Hi5 insect cells (co-expressed from pBIG1a), purified) chain 1: MKVLCVAEKNSIAKAVSQILGGGRSTSRDSGYMYVKNYDFMFSGFPFARNGANCEVTMTSVAGHLTGIDFSHDSHGWGKCAIQELFDAPLNEIMNNNQKKIASNIKREARNADYLMIWTDCDREGEYIGWEIWQEAKRGNRLIQNDQVYRAVFSHLERQHILNAARNPSRLDMKSVHAVGTRIEIDLRAGVTFTRLLTETLRNKLRNQATMTKDGAKHRGGNKNDSQVVSYGTCQFPTLGFVVDRFERIRNFVPEEFWYIQLVVENKDNGGTTTFQWDRGHLFDRLSVLTFYETCIETAGNVAQVVDLKSKPTTKYRPLPLTTVELQKNCARYLRLNAKQSLDAAEKLYQKGFISYPRTETDTFPHAMDLKSLVEKQAQLDQLAAGGRTAWASYAASLLQPENTSNNNKFKFPRSGSHDDKAHPPIHPIVSLGPEANVSPVERRVYEYVARHFLACCSEDAKGQSMTLVLDWAVERFSASGLVVLERNFLDVYPWARWETTKQLPRLEMNALVDIAKAEMKAGTTAPPKPMTESELILLMDTNGIGTDATIAEHIDKIQVRNYVRSEKVGKETYLQPTTLGVSLVHGFEAIGLEDSFAKPFQRREMEQDLKKICEGHASKTDVVKDIVEKYRKYWHKTNACKNTLLQVYDRVKASM chain 2: MSFSSILSQDITDDITPPAYSATLGSREQIVFRAYQNEPWLAGTASNLILDKKLVIVDRELLFQVLMVENITKSKLTQIDDIKTKLDPKKQKVDRLRSGAQGNGAKKYEVITQVDMEDDGNVADNNCAKENNSNNNSSAAKNKAVFKLTLQSKSGDVFFAINSTPISWSSCMLGSKIVILPGTVFNRGVFILKDSQVIFLGGINRVWNENRDQKFCDYLESKLQRDKQLVNGGSKKRKAND	
binds		MBP-Mlh2 (chain of the MBP-Mlh1/MBP-Mlh2 complex) (natural protein, S. cerevisiae, UniProt Q07980 1-695, looked up, Mlh2, S. cerevisiae, from SK1 strain genomic DNA; Same chain as in m6; source: Hi5 insect cells (co-expressed with MBP-Mlh1), purified (MBP-trap, heparin, SEC); not shown: His6, N-terminal, kept; MBP, N-terminal, kept) MTIHQLSPESQWKIVSSSFIYGPVAAVRELLDNSIDSGAKKVFIDVDSTTGGCEYISVKDDGSGVDIIDRPSMCLEYTTSKMSSLGDISILTTLGFRGEALFLLSNLCNQKGSMQVETKTADDVIGEKWLVDSKGGITNGKRYKVSCPVGTTVILRKLLGGLRARYLEISSRPRKTFDELIYLINHYSLIHRNIRFYFSLVSLQKNGAIERKQMQETLDPKISRARSLSLLARLKKPVPLNFIVEENFVIDEKINLDLILPRMVPESDVINIKRRFKFLSVNERALSLNLETGKTISKLLSSIYRDFSLLDPMVWFINLNCDTKLLDVNIEPEKNDVMIKSFEVIFKKIENKLKLLLEERIGIETNMLGDKHVQPSINEKTSPALVIPTPDAENEISKGCGAVSGKDKTDIPQKNSDLIVPTFYDEANLENTTIVAATPSPTKFSEDKALDEQTQLTISSYRSSSSGSMASEDSTNWRHNFQQELSENSEVAGAGSSTLPSSLTYNYIETIPENEDLELSKDASISNPFMITKIRNVNKKLSENLLEAKRTSCGDANKRGMPNERQLSNTEKKELIKLQQTYGKRNNTVDMTIPRNSKKKVTDNYIKKASCMHKTRPKLMHFSEYTNNYVYTLKNEKIVKHDSDNFAKETLWLRSRDDATSPSSSLLQALRAHVKKPGHIEATTNEWCLFTPDSP	
	1990 nM and 1980 nM	Rmi1 (as used in MST and XL-MS) (natural protein, S. cerevisiae, UniProt Q02685 1-241, looked up, Rmi1, S. cerevisiae, from SK1 strain genomic DNA; The methods describe GST-Rmi1 and untagged (3C protease cleaved) Rmi1; also called Rmi1 alone; source: Hi5 insect cells, purified) MSFSSILSQDITDDITPPAYSATLGSREQIVFRAYQNEPWLAGTASNLILDKKLVIVDRELLFQVLMVENITKSKLTQIDDIKTKLDPKKQKVDRLRSGAQGNGAKKYEVITQVDMEDDGNVADNNCAKENNSNNNSSAAKNKAVFKLTLQSKSGDVFFAINSTPISWSSCMLGSKIVILPGTVFNRGVFILKDSQVIFLGGINRVWNENRDQKFCDYLESKLQRDKQLVNGGSKKRKAND	binding result [5]: binds
